According to the domain aggregation screens of Martell et al. (2025):

assay: soluble fraction after stress (log2 fold change); higher = more stays soluble; pooled small domains, quantitative proteomics; conditions: stress: pH 4
Outline: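 Aggregation propensity here comes from the fold change in the soluble amount of each small protein domain after acid stress, measured in pooled custom libraries by high-throughput quantitative proteomics. The acid stress was pH 4. On the log2 scale, higher values mean more of the domain stayed soluble.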

| Sequence | soluble fraction (log2) |
| --- | --- |
| HMGELRAPLPGVIVSIPVKEGDEVKAGQAILIIEAMKMESEISSPIDAKVAKIVVKERVLVQEGDILIILE | -0.876 |
| HMPSLAVYPNPVKDILNIATDKPVHSIRIYNVYGSEVLRAADTNRIDVSHLPAGVYMVSADGKVTRIIK | 0.0765 |
| HMEEPFRIEKKGDIYYISGKTVERLVAMTDLDNDSAVKRLQRTLKRMGVEDALREHGINPGDTVVIGNYEF | 0.04 |
| HMDLLAESLTRREAEVAALAARGLTNRAIAELFGLSVRTAETHLHRAMGKLGANRREDLLLHADRLDPG | -0.618 |
| HMGLQDLFLNSLRKSKTPVTMFLVKGVKLQGVVTWFDNFSVLLRRDGMSQLVYKHSISTIMP | 0.22 |
| HMDIDNDIIENILVMGVTKAIAINLSNEFERHRIIANIEYAKEKSKNSEIKNISAFTVEAIRQDYANS | -1.12 |
| HMDLYIILGLERSATLSDVRRAYRRLARKYHPGINPGDRNSASVFTRVSEAYQVLSDPEQRRRYDSR | -0.583 |
| HMQGEKDDLWREVLDNPDAWWDNRERKNAPGGNPRYPDFKHKDSQTPLWIESRDTPQWAIDALL | -0.406 |
| HMSLNHDIWVQELKEKRSGYGISQSRLAIAAGMTRQYLSDIETGKVLPSAERKAAITEALERFNPD | -0.213 |
| HMQIDDSVELSAIVEKLLAANPEQVEQLKNGKTKVLGYFVGLAMKETQGRANPQKVNELIQTHL | -0.308 |
| HMTMRFVVADGQNFGSIAQSKALEAVKKGNTEFNYKDVDYTVDIQSDDFYVVYQGRDIMGYASR | -1.89 |
| HMSDAPLLSIRSLAVAFDGTRVVDGVSFDVARGEVVALVGESGSGKTVTGLSLLDLVPPPGRRVGGEV | -0.025 |
| HMAEPEALLAMAQRILGEEVAQSLFQGAAREQGKEGYLPDPTPAFLDALEARLSGSVGAATAHAMISQLVG | -0.473 |
| HMQADTATITGNGVNMRSGPGTNYQIIDTIPKGTVAEVLSQQDGWVKIYSARISGWVSASYVEIKQT | 0.18 |
| HMVEIGENIKKLRKAKRMTQKEVANQLNVTPQTISKWERNISYPDLDMLVKLSQLFHISTDALL | ≥ 0.43 |
| HMRIATVTPIEEDQASDRVVAVYNDIKSTKQIDFIPNFWKVIAVNPDLLEQVWGQLKTLMHPEEVG | -0.948 |
| HMNKQEFLNTLRIIFKKANVLDVESIIDVYEEHFAVGYEKGLNDEQIIKSLGTPKEIYTSYVEAGI | -1.16 |
| HMKTFSFEILADTVKKQRKAKGMTQAELSEATGINRSMIGQMENMTFKPSIEQLEALSQALDFNVIDLYTE | -0.767 |
| HMRESDQSTVELSLERTIQEALMVNPRTSSVEEFSFEWGTGRVKVSFIVYSVDGEPFTVDSIIE | -1.19 |
| HMRIHKQLGDRIRNLRLSSGMNQEELAFKSGISAAHLGQIERGLKSPTISTIQKIAKALNVTLPILF | 0.311 |
| HMANVQLAKNLKTLRKKYNYTQQDVSTFLNITRQAYSHYEQALREPDLNTLVHLSRFYQVTLDELI | -1.6 |
| HMIPDLPAVGVNVHKERRRQQLSLDALAAGSGVSKAMLSQIESGKVNPTVATMWKIAHALGVDFELLLKGE | -0.00451 |
| HMGDAPLITVDKRTIKVNGAKAQIQVYDTTGRLVKNVSPAGKLTLIEMAKPGIFIVHTQSMSFKVVL | 0.00664 |
| HMKIEEIAYSTFISMLDKGEVSKVELKDNLIYIETKADDKTIYTTGRMEDPDLTNRLIEAGVDFTEIE | -0.73 |
| HMSPILTPDQATKAYGKDGVLYIHSNKERTIYIYDVTGRTVRILEAVEGENQINGLEKGIYFLEGQKVAV | -0.378 |
| HMGDPEYFKKQLGDFMDRFNITSEDIKNLSIAGAINRMMNNAEGEDKTVLSKLLETVNKSGVGNLPAKTI | -0.144 |
| HMFLPFFDNLRKAGVPVSLREFLGFLEGMKAGLATYDIDAFYFLARTTMVKDERNLDKFDRAFSATFKG | -0.935 |
| HMQGNGKVATELLKDIIASDNLYINAMRMLVMHYNSKGTNQVEMVKLLHNILDLVPDDEYANEILKSAKKA | -0.637 |

| Sequence | soluble fraction (log2) |
| --- | --- |
| HMRNKTVKEVLDYIEKNSEFIFFYYSKAIDTKRIVSLSVKDQPITVILDQLFKNTDVLYEIKDRQISLKRE | -0.508 |
| HMAQTSAELIIEYLKRNDGFMELTDKSPADEIYETFGISKKNFKMAVGSLYKNRVIEIGQNGIRLVE | -0.0445 |
| HMKNIFDWLKQINYHKQPADSFTEKDWELFNSYMVHRFMSMNREFIEVVNYVQEMPPQEKILIYNIYREF | 0.25 |
| HMSLLLTPREASVWASEYLGKKVTSNNIIYLLNYGKIANHSTDLKENLIDKNELKIYYDSTIKSQKH | 0.00309 |
| HMYLEARVKSTTPILSKPNELGKSLGKLYTNDFVALVSLHKNGLDSYYRTANGGYINAADVVIDRDV | -0.133 |
| HMDKEPTHLHTFRLIKEGKSSEEIAEIRNITLGTVNTHLAKLIAVGELTIEQVISKHRLDYVMEAIKNSK | -0.825 |
| HMQLDLSDPSKNKLDSIVSLPIKSLKAVEANGEILFMSENGRFVLRGQLYDIWYKDTLDTSAQIQDAATRI | 0.179 |
| HMHYNMNYLENLTKTELFDLAKNKFGLTYAEMERHLSIPEGGARYAIKAEHSKYGSDIKKYLVEFLLE | -0.134 |
| HMHYALTVDFPAALEARIDPAHRAALRGVLAHDPRPSYQSDPERLYGVAFAGKNVKFTVEDGVLTVRKIEE | -0.267 |
| HMANAGKFDSDMGEKINFPGNRVSLTPSELEAARELAAIMGDRFFSQLIPTTSKVTVTEMLQSLK | -0.849 |
| HMQYYITKIANYDQVSPNLLVRTAEGQYMVKTNADILDTDVTKLTEEEIRKDWGYLFENGFSELV | -0.681 |
| HMLLLHINQMGVTEFSQLELNHVRSWLANLQIKGAARSSITRRVVSVRAFTYWGAKNGWLASDIGRDLVAP | -0.275 |
| HMSIYMNIYNEFKKYIIANVYKYDDKLPSVRSIALEYGINPNTVQRAFQLLEDEGYIKTISKKGVYVNYR | 0.112 |
| HMPYSKIALQISHLLKSHGVPLSNKQIYEKLINDFQLSINYSNLTNNILPRMNSDSSINVEKVTRGYWQY | 0.22 |
| HMIADPAKPDWTTILAPVTTGTTVTHKTFGQGTVTKLDKTKKYLTVSFAAGQKNFVFPNAFIDGFLK | -0.105 |
| HMRTYDPQAVELNNKALELINQGRLDSALLVYDQSIKTDKTYYFPHIGKSIIYMRKKDWNKAFEETQQAIK | 0.0261 |
| HMVNTVEVQGNTIYSAEEIRSASGIQKGDNLFTLNKEAAAGSIKASLPYVETVSIIRFLPDKIVIEVKE | -0.977 |
| HMNPDTERIREFVAVSLKNRKVATSGEIQNMIVKQFKNFKLKSHGYSNMKSFLSSIDKIQLNSNGKYSLK | 0.0764 |
| HMLRISLAAARVNAEMTQEDVAREMHVSKNTVVNWEKGKSEPTISQSRELSKLYNMPLEYIFYL | 0.258 |
| HMLTDMSKIRKVLKLYGKGNSKLFISTYLSLSRNTVKKYISLFEVSGKTIEEILAKSDSELELLFSG | -0.0775 |
| HMNKNNLRNVSSKIRKSRRVLNLSQAELSKKLDISPSYLNLIESGKRPITVPLLIKLGNILGISLKDL | 0.201 |
| HMLNQIGVSQKEFDQIHTAIKIALKTSSLTPTGITEKLPKFPPEKTADILRWMADNKEVLLNSEEKYELKT | 0.0247 |
| HMSYLDTLPGRRVAAQGAITGDAGTLAVDGDTWSARVEPGAPDVAPGDEVTVLRIDGATLVVRPLP | 0.0453 |
| HMGQISDDGALKKLASEVLAANPQALADWKAGKQQAVSFLVGQAMKASKGRGDAALLGELIRAALD | 0.0477 |
| HMEAISSESIKKMIKSYVSGEDASKPLSDQQIADLLVKEGYMISRRTVAKYRDELGILSSSKRKR | ≥ 0.43 |
| HMPVVKIPFILTEGPSSITKVIEIDADEILELKDVFQEDDKLWSINQIEMNDGRYVKHSDASLIVRASALR | -0.183 |
| HMSVTSIEGRVVYDENANKIGIAKQVGIDSTQSMVLVLTKNDGTEGSISWNNIKKIGEIILLGN | -1.34 |
